Article PMC11193727, “Neutralizing antibodies reveal cryptic vulnerabilities and interdomain crosstalk in the porcine deltacoronavirus spike protein” (Nature Communications, 2024)

T1: full length PDCoV S protein expressed on Huh7 cells (porcine deltacoronavirus (PDCoV))
T1 construct: source: Huh7, transfected (pCAGGS), formaldehyde-fixed cells
T1 chain: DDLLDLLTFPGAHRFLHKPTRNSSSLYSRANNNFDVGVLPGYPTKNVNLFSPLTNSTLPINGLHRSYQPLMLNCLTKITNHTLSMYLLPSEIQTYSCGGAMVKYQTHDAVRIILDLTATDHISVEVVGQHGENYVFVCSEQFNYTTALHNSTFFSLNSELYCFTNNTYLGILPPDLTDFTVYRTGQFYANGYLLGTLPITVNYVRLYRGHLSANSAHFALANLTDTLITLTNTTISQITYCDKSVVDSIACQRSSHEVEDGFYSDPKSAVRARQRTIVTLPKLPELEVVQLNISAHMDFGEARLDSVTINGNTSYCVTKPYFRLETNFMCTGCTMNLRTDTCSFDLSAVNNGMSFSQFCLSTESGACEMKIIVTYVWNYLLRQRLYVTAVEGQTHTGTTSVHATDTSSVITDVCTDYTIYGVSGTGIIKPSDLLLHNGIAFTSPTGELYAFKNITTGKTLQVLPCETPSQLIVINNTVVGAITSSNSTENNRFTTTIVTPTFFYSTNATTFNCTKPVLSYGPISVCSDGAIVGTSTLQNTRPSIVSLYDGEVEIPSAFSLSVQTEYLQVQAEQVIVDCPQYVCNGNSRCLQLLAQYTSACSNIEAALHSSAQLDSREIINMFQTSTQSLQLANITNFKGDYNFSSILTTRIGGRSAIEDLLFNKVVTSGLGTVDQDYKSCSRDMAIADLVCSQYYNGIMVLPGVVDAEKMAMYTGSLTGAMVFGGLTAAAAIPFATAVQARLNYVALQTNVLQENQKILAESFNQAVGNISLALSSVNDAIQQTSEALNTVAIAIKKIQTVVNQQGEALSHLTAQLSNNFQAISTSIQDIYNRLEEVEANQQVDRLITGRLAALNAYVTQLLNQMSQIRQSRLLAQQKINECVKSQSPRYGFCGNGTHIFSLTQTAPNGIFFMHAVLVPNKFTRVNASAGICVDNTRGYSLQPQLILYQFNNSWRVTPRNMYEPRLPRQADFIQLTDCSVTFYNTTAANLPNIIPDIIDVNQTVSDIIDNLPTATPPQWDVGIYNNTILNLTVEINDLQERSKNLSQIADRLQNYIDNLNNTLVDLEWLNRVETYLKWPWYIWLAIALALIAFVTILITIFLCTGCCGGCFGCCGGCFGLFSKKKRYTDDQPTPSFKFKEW

T2: recombinant PDCoV S1 monomer (porcine deltacoronavirus (PDCoV))
T2 chain: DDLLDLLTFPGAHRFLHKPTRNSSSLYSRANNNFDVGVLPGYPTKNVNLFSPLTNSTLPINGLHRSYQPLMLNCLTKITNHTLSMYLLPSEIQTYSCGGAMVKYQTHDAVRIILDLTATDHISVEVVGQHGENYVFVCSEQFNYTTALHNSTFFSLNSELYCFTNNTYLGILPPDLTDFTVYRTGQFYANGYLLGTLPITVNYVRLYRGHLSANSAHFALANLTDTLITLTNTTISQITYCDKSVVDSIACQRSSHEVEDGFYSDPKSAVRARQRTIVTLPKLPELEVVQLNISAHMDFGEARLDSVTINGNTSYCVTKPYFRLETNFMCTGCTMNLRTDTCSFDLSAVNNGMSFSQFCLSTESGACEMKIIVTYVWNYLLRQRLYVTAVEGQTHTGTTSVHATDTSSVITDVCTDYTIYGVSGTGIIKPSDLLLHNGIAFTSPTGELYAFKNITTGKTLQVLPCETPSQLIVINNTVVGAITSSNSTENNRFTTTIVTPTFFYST

T3: PDCoV S ectodomain, prefusion S trimer (porcine deltacoronavirus (PDCoV))
T3 construct: also called prefusion PDCoV S trimer; trimeric S ectodomain; source: HEK-293T, transient (pCAGGS), purified from culture supernatant (streptactin beads); not shown: GCN4 trimerization motif, C-terminal, kept; Strep-tag, C-terminal, kept
T3 chain: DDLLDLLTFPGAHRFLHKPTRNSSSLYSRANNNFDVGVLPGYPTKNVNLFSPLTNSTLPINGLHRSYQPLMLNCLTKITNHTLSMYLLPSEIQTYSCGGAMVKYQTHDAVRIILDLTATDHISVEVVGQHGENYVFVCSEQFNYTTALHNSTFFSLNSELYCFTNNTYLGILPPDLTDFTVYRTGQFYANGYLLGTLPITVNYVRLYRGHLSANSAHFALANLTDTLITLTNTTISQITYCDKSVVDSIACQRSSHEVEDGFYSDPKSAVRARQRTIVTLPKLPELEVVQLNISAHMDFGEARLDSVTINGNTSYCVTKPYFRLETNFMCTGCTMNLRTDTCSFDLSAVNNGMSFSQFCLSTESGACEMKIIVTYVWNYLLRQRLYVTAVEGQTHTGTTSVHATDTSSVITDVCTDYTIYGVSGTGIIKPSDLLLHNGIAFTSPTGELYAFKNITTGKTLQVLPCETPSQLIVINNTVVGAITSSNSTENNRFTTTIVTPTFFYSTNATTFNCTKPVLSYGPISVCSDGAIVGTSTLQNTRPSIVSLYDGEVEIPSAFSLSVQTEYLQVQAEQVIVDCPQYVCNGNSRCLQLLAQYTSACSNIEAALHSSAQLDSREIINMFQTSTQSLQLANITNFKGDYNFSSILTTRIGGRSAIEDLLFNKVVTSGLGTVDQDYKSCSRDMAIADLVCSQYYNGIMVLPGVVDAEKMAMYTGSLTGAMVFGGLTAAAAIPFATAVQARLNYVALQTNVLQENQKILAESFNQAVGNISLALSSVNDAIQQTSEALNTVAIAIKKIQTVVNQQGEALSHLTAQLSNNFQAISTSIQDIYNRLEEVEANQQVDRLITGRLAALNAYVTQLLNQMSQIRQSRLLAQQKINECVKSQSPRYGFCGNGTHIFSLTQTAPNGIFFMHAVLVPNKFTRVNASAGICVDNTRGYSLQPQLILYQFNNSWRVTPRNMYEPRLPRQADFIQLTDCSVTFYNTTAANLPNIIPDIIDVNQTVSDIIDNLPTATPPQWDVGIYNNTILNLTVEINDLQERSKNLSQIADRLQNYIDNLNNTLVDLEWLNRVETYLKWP


What was measured:
[1] = molecular target: PDCoV S ectodomain, prefusion S trimer (porcine deltacoronavirus (PDCoV)); assay: cryo-EM structure; PDCoV S ectodomain (10.5 µM protomer) incubated with 22C10 Fab for about 10 min at room temperature
[2] = molecular target: recombinant PDCoV S1 monomer (Porcine deltacoronavirus …, UniProt W8Q9Y7); assay: BLI; details: both partners purified
[3] = molecular target: T4, PDCoV S1 (wild type), ELISA antigen (Porcine deltacoronavirus …, UniProt W8Q9Y7); assay: ELISA; details: both partners purified
T4 construct: source: HEK-293T, purified (Protein A Sepharose)

[4] = molecular target: T1, full length PDCoV S protein expressed …; assay: immunostaining of cells or tissue; details: one partner purified
[5] = molecular target: T2, recombinant PDCoV S1 monomer; assay: BLI
[6] = molecular target: T3, PDCoV S ectodomain, prefusion S trimer; assay: BLI; monomeric S1B or untreated trimeric S immobilised on anti-strep mAb-coated protein A biosensor; mAb (50 µg/ml) or APN (100 µg/ml) for 30 min; details: both partners purified
PDCoV S1A domain = molecular target: T5, PDCoV S1A domain (Porcine deltacoronavirus …, UniProt W8Q9Y7); assay: ELISA; purified Strep-tagged S antigens (S trimer, S1B, S1A; 1 µg/ml) coated on Maxisorp plates; human mAbs in fivefold dilutions from 10 µg/ml, RT 1 h; detection with HRP anti-human IgG; details: both partners purified
T5 construct: also called N-terminal domain; NTD; source: HEK-293T, transient (pCAGGS), purified from culture supernatant (streptactin beads); not shown: triple Strep-tag, C-terminal, kept

Molecule	stoichiometry N [1]	binding result [2]	binding result [3]	binding result [4]	Kd [5] [nM]	binding result [6]	binding result (PDCoV S1A domain)
PDCoV S ectodomain, prefusion S trimer (domain or fragment)	3						
22C10 human IgG1 monoclonal antibody (antibody, V domains shown, IgG1, kappa; also called mAb 22C10; source: HEK-293T, transient, purified (Protein A Sepharose)) VH: EVRLLESGGGLVQPGGSLRLSCAASGFTFSSYAMSWVRQAPGKGLEWVSIITDSGGGTYFADSVKGRFTISRDNSKNTLYLQMNSLRAEDTALYYCVKVGFCYSSTCPFDYWGQGTLVTVSS VL: ELVMTQSPATLSVSPGERATLSCRASQSVSSDLAWYQQRPGRAPRLLIYDASTRTTGIPARFSGSGSGTEFTLTISSLQSEDFAVYYCHQYNNWLTFGQGTRLEIK		binds	binds	binds	46.6	binds	binds
42H3 human IgG1 monoclonal antibody (antibody, V domains shown, also called S1B neutralizer) VH: QVQLVESGGGVVQPGRSLRLSCAASGFTFSSYDMHWVRQAPGKGLEWVAVIWNDGSNEYYADSVKGRFIISRDNSKNTLYLQMNSLRAEDTAVYYCARRGIIMVRGLLGYWGQGTLVTVSS VL: DIQMTQSPPSLSASVGDRVTITCRASQGISNYLAWHQQKPGKVPKLLIYTASTLQSGVPSRFSGSGSGTDFTLTISSLQPEDVATYYCQKYNSAPFTFGPGTKVDIK		binds			42		
46E6 human IgG1 monoclonal antibody (antibody, V domains shown, IgG1, kappa; also called S1B neutralizer) VH: QVQLVESGGGVVQPGRSLRLSCAASGFTFSSYAMHWVRQAPGKGLEWVAVIWRDGSNEFYADSVKGRFTISRDNSKDTLYLQMNSLRAEDTAVYYCARRGIIMVRGLLGYWGQGTLVTVSS VL: DIQMTQSPPSLSASVGDRVTITCRASQGISNYLAWHQQKPGKVPKLLIYTASTLQSGVPSRFSGSGSGTDFTLTISSLQPEDVATYYCQKYNSAPFTFGPGTKVDIK		binds			19.9		
